± gives the standard deviation.

This data set is described as follows: protein stability index of a GFP-peptide fusion (GPS, HEK-293T) (PSI 1-6); higher = more stable. Conditions: c terminus: a fixed tail appended.
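Further: 24-mer peptide tiles fused after GFP, lentivirally expressed, FACS-sorted into six equal bins by GFP/DsRed ratio, decoded by Illumina sequencing, PSI is the read-weighted mean bin number.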

Regarding SDNSWVLAGSESLPVETLGPASRM [PBXIP1], the protein stability index is, setting by setting: (treatment: DMSO) 3.83 ± 0.15; (treatment: MLN4924 1 uM, 8 h) 4.02 ± 0.5.
Regarding SDVNDNAPRFNQQLYTAYILENRP [PCDHGC5], the protein stability index came out at 2.87 ± 0.26 (treatment: DMSO) and 3.1 ± 0.31 (treatment: MLN4924 1 uM, 8 h).
The corresponding values for SEADSEAGELRKPTQEEWRQVVDI [PPEF2] are 5.45 ± 0.15 and 5.46 ± 0.34.
SEEEKELYLNLALHLASDFFLKHP [PDS5B]: the protein stability index stood at 2.19 ± 0.36 (treatment: DMSO) and 2.18 ± 0.36 (treatment: MLN4924 1 uM, 8 h).
For SEGTNLNAPNSLGVSALCAICGDR [HNF4A], in that order: 3.88 ± 0.28 and 4.13 ± 0.26.
For SEIKNLERYMCSRFFIDFPHIEEQ [TENT5D], in that order: 2.42 ± 0.15 and 2.22 ± 0.35.
For the sequence SELERLIVPNSNGVITTTPTPPGQ [JUNB], the protein stability index reads like this: (treatment: DMSO) 4.65 ± 0.16; (treatment: MLN4924 1 uM, 8 h) 4.75 ± 0.097.
For SENCPKVISCEFAHNSNWYITFQS [LARP4], in that order: 2.21 ± 0.23 and 2.08 ± 0.27.
For SFCLEDTECEGDIQKNYECANFGD [LOXL2], in that order: 5.14 ± 0.14 and 5.33 ± 0.2.
The corresponding values for SFGPQPISRLEQCGINANDVKKLE [RAD51] are 4.27 ± 0.18 and 4.37 ± 0.14.
Take SFGWSDRAKVKTDDIARIYQPKRY [FAM98B]: the protein stability index was 2.9 ± 0.38 (treatment: DMSO) and 2.99 ± 0.54 (treatment: MLN4924 1 uM, 8 h).
For the sequence SGGITHDTFQKELMCFDPDTDKWI [KLHL13], the protein stability index reads like this: (treatment: DMSO) 3.94 ± 0.16; (treatment: MLN4924 1 uM, 8 h) 4.17 ± 0.25.
As for SHLSNGLDPVAETAIRQLTEPSGR [C2CD2L], the protein stability index was 4.34 ± 0.31 (treatment: DMSO) and 4.58 ± 0.3 (treatment: MLN4924 1 uM, 8 h).
The corresponding values for SHRPNMELCRDAAQFRLLSEVEEL [TEKT4] are 3.82 ± 0.3 and 3.72 ± 0.05.
For SIDFNKDGHIDINEFLEAFRLVEK [PPEF2], in that order: 2.88 ± 0.17 and 3.32 ± 0.4.
The corresponding values for SIEYDSEPFGKERDAAIKKLATEA [CRY1] are 5.18 ± 0.14 and 4.87 ± 0.7.
As for SKLCTSYSHSSTRDGRRDRYSSDT [GOSR1], the protein stability index is, setting by setting: (treatment: DMSO) 4.32 ± 0.25; (treatment: MLN4924 1 uM, 8 h) 4.18 ± 0.16.
For SKPSIQPKPLLLPAAPKTQTISSI [ATF6], in that order: 3.88 ± 0.32 and 3.82 ± 0.31.
The corresponding values for SLCKALAQKLTIRLSSRYRYGQLI [TRIP13] are 3.01 ± 0.47 and 3.16 ± 0.66.
The corresponding values for SLEMDSDEDDSEELEEDDGHGAEQ [EHMT1] are 5.45 ± 0.27 and 5.62 ± 0.38.
For the sequence SLFAFKSFRENWQRAWVRALNEQA [C2CD2L], the protein stability index is, setting by setting: (treatment: DMSO) 2.15 ± 0.08; (treatment: MLN4924 1 uM, 8 h) 2.1 ± 0.23.
The corresponding values for SLGALDLLGPATGCLLDDGLEGLF [SERTAD1] are 2.6 ± 0.24 and 2.57 ± 0.32.
For SLGKARTAQVQKDARIGEAEAKRD [FLOT1], in that order: 5.31 ± 0.21 and 5.12 ± 0.36.
For SLLQKVSPVAHKHLSRQKIDPLLY [TBC1D10A], in that order: 2.07 ± 0.19 and 2.24 ± 0.2.
In the case of SLQPQQQQQRQRPPRPPPRGTPPR [N4BP2L1], the protein stability index reads like this: (treatment: DMSO) 3.81 ± 0.17; (treatment: MLN4924 1 uM, 8 h) 4.16 ± 0.2.
The corresponding values for SNDNEERLQVVKLLAKMFGAKDSE [PDS5B] are 3.17 ± 0.3 and 3.12 ± 0.4.
The corresponding values for SNKYGFGYQLSDHTVGVLFNNGAH [PLK2] are 2.61 ± 0.41 and 2.58 ± 0.5.
For SNSCPAELPNIKREISETEAKALL [TFE3], in that order: 5.1 ± 0.098 and 5.18 ± 0.12.
In the case of SNVRWDHESVCKYYLCGFCPAELF [LUC7L3], the protein stability index came to 2.25 ± 0.37 (treatment: DMSO) and 2.29 ± 0.34 (treatment: MLN4924 1 uM, 8 h).
The corresponding values for SPDKDSIMNIEPAILVMHHSMKPH [INTS3] are 3.32 ± 0.3 and 3.5 ± 0.2.
Regarding SPDSSMLCSVGASKAVFLWNMDKY [WSB1], the protein stability index by setting is: (treatment: DMSO) 2.35 ± 0.42; (treatment: MLN4924 1 uM, 8 h) 2.35 ± 0.26.
For SPEWDTVTPEAKDLINKMLTINPA [CAMK2D], in that order: 4.24 ± 0.42 and 4.54 ± 0.12.
For SPKELKRRNSSSSMSSRLSIYDNV [DLC1], in that order: 3.92 ± 0.32 and 3.94 ± 0.39.
For SPPPAPTSSTFGLQDGNLRAPHKE [CHCHD6], in that order: 5.11 ± 0.5 and 5.32 ± 0.14.
SQSSASQPRLSYAEMAEDYPRYPD [CLCN6] displayed a protein stability index (treatment: DMSO) of 4.83 ± 0.14 and a protein stability index (treatment: MLN4924 1 uM, 8 h) of 4.86 ± 0.13.
For SRAALVCRKWNQMMYSAELWRYRT [FBXO39], in that order: 2.45 ± 0.56 and 2.15 ± 0.25.
The corresponding values for SRCRKLVEYFQQSAVAMYMLYEKQ [ZBED1] are 2.44 ± 0.65 and 2.13 ± 0.22.
The corresponding values for SRFISANLPCNKFKNRLVNIMPYE [PTPRD] are 2.13 ± 0.42 and 1.98 ± 0.13.
With SRLTPGGKAAQAGVAVGDWVLSID [PDLIM7], the protein stability index reads like this: (treatment: DMSO) 2.63 ± 0.29; (treatment: MLN4924 1 uM, 8 h) 3.02 ± 0.61.
The corresponding values for SSESSSDSDNSGGGGGGGGGGGGG [ANKRD17] are 5.59 ± 0.27 and 5.7 ± 0.12.
On to SSHEPCSATCTTGVMSAYAMCVRY [ADAMTSL2], for which the protein stability index was 2.24 ± 0.3 (treatment: DMSO) and 2.32 ± 0.19 (treatment: MLN4924 1 uM, 8 h).
The corresponding values for SSHKQGHTSSEYDMLREMFSDSRS [TAF7L] are 4.11 ± 0.21 and 4.13 ± 0.26.
For SSKFYDLFLMDLSEGELGGPSEPG [RHOBTB2], in that order: 3.19 ± 0.2 and 3.25 ± 0.34.
For SSQKKDTSSSTVVSTQRSQDHFHV [TIA1], in that order: 4.66 ± 0.21 and 4.64 ± 0.25.
Regarding SSSCAVHDLIFWRDVKKTGFVFGT [RTN3], the protein stability index by setting is: (treatment: DMSO) 2.71 ± 0.52; (treatment: MLN4924 1 uM, 8 h) 2.58 ± 0.52.
The corresponding values for SSSSSSSSCYPLIPSTPEEVSADD [MAGEA10] are 5.46 ± 0.33 and 5.5 ± 0.14.
For SSTSYRRTFGPPPSLSPGAFSYSS [PRPH], in that order: 3 ± 0.28 and 3.21 ± 0.3.
For STAHASAQSLAGGSRRTKEEELQC [TPD52L1], in that order: 5.16 ± 0.15 and 5.12 ± 0.23.
For STMTSSVQIYNLSQNIQEDDLQQL [ATL3], the protein stability index amounted to 4.45 ± 0.13 (treatment: DMSO) and 4.57 ± 0.31 (treatment: MLN4924 1 uM, 8 h).
For STSSSFPSSFPSSSSSSSSSCYPL [MAGEA10], in that order: 3.73 ± 0.11 and 3.82 ± 0.32.
As for STSSSTQGDPAFPEMNGNGAVAPM [NOL4L], the protein stability index (treatment: DMSO) was 4.93 ± 0.34 and the protein stability index (treatment: MLN4924 1 uM, 8 h) was determined as 5.05 ± 0.054.
For SVAEGYYSHRETVNGSWYIQDLCE [CASP6], in that order: 3.23 ± 0.22 and 3.11 ± 0.35.

These data come from the supplement of paper PMC10567573.
